B1: CPEB3 Ribozyme (parent)
chain: UAACAGGGGGCCACAGCAGAAGCGUUCACGUCGCAGCCCCUGUCAGAUUCUGGUGAAUCUGCGAAUUCUGCUGUAUAUCUC

Variants of B1 are the subject of the data set. As to the kind of experiment: self-cleavage, relative activity (ratio to wild type); higher = more cleavage; in vitro, sequencing. The essentials:
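Libraries of CPEB3 self-cleaving ribozyme mutants came from rounds of error-prone PCR and carried barcodes, which DNA sequencing matched to variants. In vitro transcription used T7 RNA polymerase at 37°C for 5 hours, with a further 15 min in DNase I before EDTA stopped the reaction; the ribozymes cleaved during both steps. The RNA was reverse transcribed with template switching and sequenced on Illumina. Relative activity is the cleaved/total read fraction of a variant divided by that of the unmutated ribozyme, averaged over three batches with at least 5 reads.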
As for C11A U80C, the self-cleavage turned out to be 0.5.

As for C11G U48C, the self-cleavage worked out at 0.11.

For C11U G63A, the self-cleavage worked out at 0.24.

Take C11A U54A: the self-cleavage worked out at 0.43.

Take C11A U54G: the self-cleavage came out at 0.21.

In the case of C11A U54C, the self-cleavage was determined as 0.17.

Regarding C12A G52A, the self-cleavage was 1.23.

With C11A A75U, the self-cleavage was found to be 0.4.

In the case of C11A A75G, the self-cleavage was found to be 0.36.

As for C11A C81U, the self-cleavage is 0.52.

With C11A C81G, the self-cleavage is 0.39.

As for C11A U41C, the self-cleavage came out at 0.58.

As to C11A U41A, the self-cleavage is 0.33.

For C11G U25A, the self-cleavage came to 0.1.

Regarding C11G U25C, the self-cleavage amounted to 0.22.

Take C11A U26A: the self-cleavage was 0.3.

In the case of C11A U26C, the self-cleavage came to 0.18.

On to C12A A21G, for which the self-cleavage stood at 0.73.

Take C11G A45G: the self-cleavage was 0.35.

On to C11G A45U, for which the self-cleavage is 0.23.

Consider C11G A45C, for which the self-cleavage was 0.07.

Regarding C12G A57G, the self-cleavage is 0.41.

Take C11G G19C: the self-cleavage came out at 0.48.

Regarding C11G A13U, the self-cleavage worked out at 0.75.

With C11G A13G, the self-cleavage was found to be 0.32.

Regarding C12G C50G, the self-cleavage was determined as 0.28.

For C12A U74G, the self-cleavage amounted to 1.28.

Consider C12G U67G, for which the self-cleavage stood at 0.12.

Consider C12G U67C, for which the self-cleavage is 0.08.

C12G U67A: the self-cleavage was found to be 0.23.

In the case of C12A A45G, the self-cleavage was found to be 1.04.

For C12A A45U, the self-cleavage turned out to be 0.49.

Consider C11G A57G, for which the self-cleavage was found to be 0.43.

For the variant C11G A57U, the self-cleavage worked out at 0.39.

As to C11U G73A, the self-cleavage turned out to be 1.25.

Turning to C11U U69A, the self-cleavage worked out at 0.24.

Turning to C12G U78C, the self-cleavage stood at 0.71.

As for C11G C81U, the self-cleavage was determined as 0.86.

On to C11G A20G, for which the self-cleavage came out at 0.56.

As for C11G A20U, the self-cleavage stood at 0.12.

Consider C11G C71U, for which the self-cleavage turned out to be 0.16.

Take C11U A28U: the self-cleavage was 0.34.

As for C11A U51C, the self-cleavage is 0.38.

C11A U48G: the self-cleavage was 0.06.

With C11A U48C, the self-cleavage worked out at 0.32.

With C11U A13U, the self-cleavage was 0.49.

Turning to C11U A13C, the self-cleavage amounted to 0.09.

C11U A13G: the self-cleavage amounted to 0.43.

Turning to C12G A20G, the self-cleavage is 0.44.

As to C12G C40A, the self-cleavage turned out to be 0.11.

In the case of C12G A18U, the self-cleavage came out at 0.35.

As to C12G A18G, the self-cleavage amounted to 0.17.

Regarding C11G G55U, the self-cleavage came to 0.55.

Consider C11G G55A, for which the self-cleavage is 0.14.

Take C12A U58C: the self-cleavage was determined as 0.54.

With C11U G33C, the self-cleavage turned out to be 0.14.

With C11U G33U, the self-cleavage turned out to be 0.19.

With C11U G33A, the self-cleavage was 0.42.

As for C11U G52A, the self-cleavage came to 0.62.

As to C11A U78A, the self-cleavage was 0.47.

Regarding C11A U78C, the self-cleavage was found to be 0.31.

C12A G19A: the self-cleavage came out at 0.43.

C12U: the self-cleavage came out at 1.25.

Regarding C12A, the self-cleavage was found to be 1.15.

Turning to C12G, the self-cleavage was determined as 0.59.

For C12G U49C, the self-cleavage was 0.16.

For C11U A21G, the self-cleavage is 0.28.

For the variant C11G U67A, the self-cleavage amounted to 0.27.

For the variant C11G U67G, the self-cleavage is 0.2.

Turning to C11G U67C, the self-cleavage came to 0.16.

Consider C12G U41G, for which the self-cleavage was 0.14.

For the variant C12G U41C, the self-cleavage was determined as 1.09.

Turning to C11G U80C, the self-cleavage was 0.55.

With C11G U80A, the self-cleavage was found to be 0.76.

On to C11U A75U, for which the self-cleavage turned out to be 0.43.

On to C11U A75G, for which the self-cleavage came out at 0.32.

In the case of C11G U78G, the self-cleavage was 0.59.

C11G U78A: the self-cleavage was 0.8.

With C11G U78C, the self-cleavage was 0.43.

For the variant C11U A15U, the self-cleavage was determined as 0.35.

As to C11U A15G, the self-cleavage was determined as 0.4.

Take C11U A15C: the self-cleavage turned out to be 0.5.

Turning to C12G A13G, the self-cleavage turned out to be 0.71.

As to C12G A13C, the self-cleavage amounted to 0.72.

For C12G A13U, the self-cleavage is 1.14.

For the variant C11G C44G, the self-cleavage came to 0.32.

With C12A A35G, the self-cleavage stood at 0.9.

Turning to C12A A35U, the self-cleavage came out at 1.27.

On to C11U U49A, for which the self-cleavage came to 0.32.

C11U U49C: the self-cleavage worked out at 0.24.

For the variant C12G U72A, the self-cleavage worked out at 0.29.

With C12G U43C, the self-cleavage is 0.38.

With C12U A18U, the self-cleavage amounted to 0.62.

With C12U A18G, the self-cleavage came to 0.95.

For C11G U69G, the self-cleavage was 0.14.

Regarding C11G U69C, the self-cleavage came out at 0.25.

As to C11G U69A, the self-cleavage came to 0.11.

As for C12G A65G, the self-cleavage was found to be 0.18.

For C12G A65U, the self-cleavage stood at 0.1.

For C11G G36U, the self-cleavage amounted to 0.09.

Regarding C12A A13G, the self-cleavage is 0.89.

In the case of C12A A13C, the self-cleavage came to 1.23.

With C12A A13U, the self-cleavage came to 1.25.

For C12G C29G, the self-cleavage worked out at 0.24.

As for C11A U67C, the self-cleavage stood at 0.09.

Regarding C11A U67A, the self-cleavage came to 0.17.

Regarding C11U G61C, the self-cleavage is 0.11.

On to C12G U26C, for which the self-cleavage amounted to 0.24.

In the case of C12A G24U, the self-cleavage was 0.33.

C11U U31G: the self-cleavage was determined as 0.23.

With C11U U31C, the self-cleavage turned out to be 0.29.

In the case of C11U U31A, the self-cleavage was found to be 0.32.

For the variant C11U A65U, the self-cleavage was 0.33.

With C11U A65G, the self-cleavage amounted to 0.2.

Turning to C12A C40U, the self-cleavage is 0.69.

With C12A C40A, the self-cleavage came to 0.3.

On to C11A U60C, for which the self-cleavage stood at 0.2.

C11U A47G: the self-cleavage turned out to be 0.36.

In the case of C11U A47U, the self-cleavage is 0.31.

As for C12A C29U, the self-cleavage worked out at 0.7.

Take C12A C17G: the self-cleavage turned out to be 0.16.

Regarding C11G A65G, the self-cleavage was found to be 0.21.

Regarding C11U A64G, the self-cleavage is 0.34.

On to C12A A28C, for which the self-cleavage stood at 0.57.

With C12A A28U, the self-cleavage turned out to be 0.92.

As to C12A A28G, the self-cleavage worked out at 0.59.

For the variant C12A G55C, the self-cleavage came out at 0.78.

For the variant C12A C68G, the self-cleavage worked out at 0.52.

Regarding C11A U66C, the self-cleavage is 0.12.

On to C11A C68A, for which the self-cleavage was determined as 0.14.

Turning to C12G U25C, the self-cleavage amounted to 0.14.

In the case of C11G U51A, the self-cleavage worked out at 0.31.

Regarding C11G U51C, the self-cleavage came to 0.41.

Consider C11G U72C, for which the self-cleavage is 0.69.

For the variant C11A C23G, the self-cleavage is 0.13.

As for C11A C23U, the self-cleavage was found to be 0.06.

In the case of C11G A75G, the self-cleavage came to 0.41.

C11G A75U: the self-cleavage was 0.78.

Take C12U A15U: the self-cleavage was 1.23.

Take C12U A15G: the self-cleavage turned out to be 0.86.

Turning to C11G A21G, the self-cleavage was 0.3.

C11G A21C: the self-cleavage came to 0.08.

In the case of C11G U54A, the self-cleavage is 0.28.

For C11G U54C, the self-cleavage amounted to 0.49.

C11U U74C: the self-cleavage was 0.83.

For the variant C11U U74A, the self-cleavage amounted to 0.96.

Regarding C11U C14A, the self-cleavage came to 0.93.

For the variant C11G U26C, the self-cleavage was determined as 0.24.

In the case of C11G U26A, the self-cleavage came to 0.34.

Consider C12G U54C, for which the self-cleavage is 0.51.

With C11U U54C, the self-cleavage worked out at 0.43.

Take C11U U54A: the self-cleavage worked out at 0.45.

For C11G U43A, the self-cleavage came out at 0.67.

With C11G U43C, the self-cleavage turned out to be 0.29.

In the case of C12A U43A, the self-cleavage worked out at 0.99.

As to C11A U72C, the self-cleavage was 0.52.

Consider C11A U72A, for which the self-cleavage worked out at 0.15.

Consider C12G G24A, for which the self-cleavage came out at 0.19.

On to C11G, for which the self-cleavage worked out at 0.52.

Take C11U: the self-cleavage stood at 0.44.

Regarding C12A A65G, the self-cleavage stood at 0.44.

In the case of C12A A65C, the self-cleavage is 0.32.

Take C12A A15C: the self-cleavage worked out at 1.17.

Turning to C12A A15G, the self-cleavage was 1.19.

C11A U58C: the self-cleavage turned out to be 0.43.

Turning to C11U A57G, the self-cleavage was 0.33.

C11U U41A: the self-cleavage came out at 0.3.

Source of the values: the RNAGym collection of RNA variant scans (doi:10.1093/nar/gkz1192).
